This is an account of results in the nanobody polyreactivity screen of Harvey et al. (2022).

The data set can be described thus: yeast display, Sf9 membrane polyspecificity reagent, FACS + sequencing; frameworks hold sequencing errors. The procedure, abridged: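 Galactose-induced (36–48 hours) yeast carrying a synthetic nanobody display library were exposed to 10% biotinylated, detergent-solubilized Sf9 membrane reagent at 4 °C for 1 hour. FACS followed streptavidin microbead enrichment, using low and high (top ~1%) gates for expression (anti-HA) and reagent binding (streptavidin). Colony PCR, MiSeq 2 × 250 sequencing and CDR-length filtering followed. Labels for polyreactivity reflect the gate of origin.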
In the case of “QVQLVESGGGLVQAGGSLRLSCAASGRTFALYALGRYRQAPGKERELVASISWRGGSTYYADSVKGRFTISRDNANNTVYVQMNRLKPEDTAVSYCAADTGSYGPLIYRLEYWGQGTQVNVSS”, the “polyreactivity (PSR sort gate)” value was “low polyreactivity”.

As for “QVQLVESGGGLVQAGGSLRLSCAASGRTFALYTMGWYRQAPGKVRELVAAINWSGTSTYYADSVKGRFTISRDNAKNTVYLQMNSLKPEDTAVYYCNRDPRKYGKLDYWGQGTQVTVSS”, the “polyreactivity (PSR sort gate)” value is on record as “low polyreactivity”. On to “QVQLVESGGGLVQAGGSLRLSCAASGRTFANNAMGSYRPAPGKAREWVASISITTSTYYADSVKGRFTISRDNAKITVYLQLNSLKPEDTPVYYCAAYYFIHAGPWEFDYWGQGTQVTVSS”, for which the “polyreactivity (PSR sort gate)” value is listed as “low polyreactivity”. For the sequence “QVQLVESGGGLVQAGGSLRLSCAASGRTFANYAMGWYRQAPGKDRELVAAIYSGGNTYYEDSVKGRFTISRDNAKNTVFLQMNRLKPEDTAVYYCNSPWYYRYQRNEYGYWGQGTQVTVSS”, the “polyreactivity (PSR sort gate)” value is reported as “high polyreactivity”.

Regarding “QVQLVESGGGLVQAGGSLRLSCAASGRTFAPYAMGWYRQAPGKERELVAAISWSGGSTYYADSVKGRFTISRDNAKNSVYLQMNSLKPEDTAVYYCAVVVDYDADRYWGYDYWGQGTQVTVSS”, the “polyreactivity (PSR sort gate)” value is given as “high polyreactivity”. As to “QVQLVESGGGLVQAGGSLRLSCAASGRTFAQYAMGWYRQAPGKERELVAAISRSGGSTFYADSVKGRFTISRDNAKNTVYLQMNSLKPEDTAVYYCAAYNRQASLDYWGQGTQVTVSS”, the “polyreactivity (PSR sort gate)” value is “high polyreactivity”. For the sequence “QVQLVESGGGLVQAGGSLRLSCAASGRTFARNAMGWYRHAPGKERELVAAISGSGGITYYADSVKGRFTISRDNAKNTVYLQMNSLKPEDTAVYYCNAGNNVVVDYDYWGQGTQVTVSS”, the “polyreactivity (PSR sort gate)” value is given as “low polyreactivity”. The entry for “QVQLVESGGGLVQAGGSLRLSCAASGRTFARYAMGWYRPAPGKERELVAAISSSGVSSYYADSVKGRFTISRDNAKNTVYLQMNSLKPDDTAVYYCVTYRNWWYDYWGQGTQVTVSS” is “high polyreactivity”; for “QVQLVESGGGLVQAGGSLRLSCAASGRTFARYAMGWYRQAPGKERELVAAITRGGSTKYADSVKGRFTISRDNAKNTVYLQMNSLKPEDTAVYYCNKVIVQYTLDRGYWGQGTQVTVSS” it is “high polyreactivity”. The result for “QVQLVESGGGLVQAGGSLRLSCAASGRTFARYAMGWYRQAPGKERELVAVISRTGSTYYADSVKGRFTISRDNAKNTVYLQMNSLKPEDTAVYYCATVYYYLAYGWSYSDMDYWGQGTQVTVSS” reads “high polyreactivity”; that for “QVQLVESGGGLVQAGGSLRLSCAASGRTFARYTMGWYSQAPVKERELVASITRGGSTYYADSVKGRFTISSDNAKNTVYLQMYSLKPEDTAVYYCNAVYIVGGDWGQGTQVTVSS”, “high polyreactivity”; that for “QVQLVESGGGLVQAGGSLRLSCAASGRTFARYVMGWYRPAPGKERELVASISNSGGSTYYADSVKGRFTISRDNAKNTVYLQMNSQKPEDTAVSYCARRYYYWGQGTQVTVSS”, “high polyreactivity”. Regarding “QVQLVESGGGLVQAGGSLRLSCAASGRTFASNAMGWYRQAPGKERELVAAISYSGGRTYYADSVKGRFTISRDNAKNTVYLQMNSLKPEDTAVYYCAKVGPVYKYDYWGLGTQVTVSS”, the “polyreactivity (PSR sort gate)” value is recorded as “high polyreactivity”. The entry for “QVQLVESGGGLVQAGGSLRLSCAASGRTFASYAMGWYRQAPGKERELVASIRYSGGSTHYADSVKGRFTISRDNAKNPVYLQMNSLKPEDTAVYYCNARPKFRTYNYWGQGTQVTVSS” is “high polyreactivity”; for “QVQLVESGGGLVQAGGSLRLSCAASGRTFASYVMGWYRQAPGKERELVAAIDWHTGSTYYADSVKGRFTISRDNAKNTVYLQMNSLKPEDTAVYYCAAVYFLYPEGYWQTLYEYYYWGQGTQVTVSS” it is “low polyreactivity”. On to “QVQLVESGGGLVQAGGSLRLSCAASGRTFATYAMGWYRQAPGKERELVAAISSGGSTYYADSVKGRFTISRDNAKNTVYLQMNSLKPEDTAVYYCAVYVDYYGYGYWGQGTQVTVSS”, for which the “polyreactivity (PSR sort gate)” value is listed as “high polyreactivity”. Consider “QVQLVESGGGLVQAGGSLRLSCAASGRTFAVNAMGWYRQAPGKESELVAAISQRAGRTYYADSVKGRFTISRDNAKNTVYLQMNSLKPEDTAVYYCNVVGFRSRVGSRGYWGQGTQVTVSS”, for which the “polyreactivity (PSR sort gate)” value is listed as “high polyreactivity”. The result for “QVQLVESGGGLVQAGGSLRLSCAASGRTFAVYAMGWYRQAPGKERELVAAISGRGGNTYYADSVKGRFTISRDNAKNTVYFQMNSLKPEDTAVYYCAAKAYQSEYGYWGQGTQVTVSS” reads “high polyreactivity”; that for “QVQLVESGGGLVQAGGSLRLSCAASGRTFAVYAMGWYRQATGKERELVAAISSGGSTYYADSVKGRFTISRDNAKNTVYLQMNSLKPEDTAVYYCTARWGYRRGYCGQGTQVTVSS”, “high polyreactivity”. The entry for “QVQLVESGGGLVQAGGSLRLSCAASGRTFAWKAMGWYRQAPGKERELVAAMSSRGTSTYYADSVKGRFTISRDNAKKTVYLQMNSLKPEDTAVYYCAKYTNPASGEYGYWGQGTQVTVSS” is “high polyreactivity”. The entry for “QVQLVESGGGLVQAGGSLRLSCAASGRTFAWYAMGWYRQAPGKERELVAAISSGGSTYYADSVKGRFTISRDNAKNTVYLQMNSLKPEDTAVYYCAAEWHYIYAYDSWGQGTQVTVSS” is “low polyreactivity”; for “QVQLVESGGGLVQAGGSLRLSCAASGRTFAWYAMGWYRQAPGKERELVAAITTRGSGTYYADSVKGSFTISRDNAKNTVYLQMHSLKPEDTAVYYCAKDPITATTLDERVYYWGQGTQVTVSS” it is “low polyreactivity”.

Consider “QVQLVESGGGLVQAGGSLRLSCAASGRTFAYNAKGWYRQPPGKERELVASITVGGGSTYYADSVKGRFTISRDNAKNTVYLQMNSLKPEDTAVYYCAARVPSWKYDYWGQGTQVTVSS”, for which the “polyreactivity (PSR sort gate)” value was “high polyreactivity”. The entry for “QVQLVESGGGLVQAGGSLRLSCAASGRTFAYNAMGWYRPAPGKERELVAAITGSGGRTYYADSVKGRFTISRDNAKNTVYLQMNSLKAEDTAVYYCAVGLPSRYDYWGQGTQVTVSS” is “low polyreactivity”; for “QVQLVESGGGLVQAGGSLRLSCAASGRTFAYNAMGWYRQAPGKEREMVASITSGGSTNYADSVKGRFTISRDNAKNNVYLQINSLIPEDTAVYYCNIDGKYHLVLYDYWGQGTQVTVSS” it is “low polyreactivity”; for “QVQLVESGGGLVQAGGSLRLSCAASGRTFAYYAMGWYRQAPGKERELVAAIDSSGGSTYYADSVKGRFTISRDNAKNTVYLQMNSLKPEDTAVYYCAASYPYDRYDQGGYGYWGQGTQVTVSS” it is “low polyreactivity”. In the case of “QVQLVESGGGLVQAGGSLRLSCAASGRTFAYYAMGWYRQAPGKERELVSTITWSDGSTYADSVKGRFTISRDNAKNTVYLQMNSLKPEDTAVYYCAAQGWSWYWYYFYLFDYWGQGTQVTVSS”, the “polyreactivity (PSR sort gate)” value is reported as “high polyreactivity”.

“QVQLVESGGGLVQAGGSLRLSCAASGRTFAYYTMGWYRQAPGKERELVDAISSRGGRTYYADSVKGRFTISRDNAKNTVYLQMNSLKPEDTAVYYCAAVSHGVYYQYRRRYYSWGQGTQVTVSS”: the “polyreactivity (PSR sort gate)” value is “high polyreactivity”. As to “QVQLVESGGGLVQAGGSLRLSCAASGRTFCRYAMGWYIQAPGKERELVASISVSGGGTYYADSVKGRFTISRDNAKNTVFLQMNSLKPQDTAVYYCAARPVYYRYRRDYWGQGTHVTVSS”, the “polyreactivity (PSR sort gate)” value is “high polyreactivity”.

As for “QVQLVESGGGLVQAGGSLRLSCAASGRTFCTNAMGWYRQAPGKERELVAVISGSTGSTYYADSVKGRFTISRDNAKNTVYLQMNSLKPEDTAVYYCAASYRNTGRWSYRGDYWGQGTQVTVSS”, the “polyreactivity (PSR sort gate)” value was “high polyreactivity”.
